In patent publication US12485179B2, “Cholecystokinin B receptor targeting for imaging and therapy” (Purdue Research Foundation, priority 2012, dated 2025):

Columns and labels:
[1] = tested on: HEK CCK2i4svR tumors; test: In vivo radio-imaging and bio-distribution, HEK CCK2i4svR tumor xenografts; design: species or system nu/nu mice
Experimental: (§1) In order to test the in vivo specificity of CRL-3 chelated with ^99mTc, HEK CCK2R and CCK2i4svR subcutaneous tumors were produced in nude mice according to known methods. Athymic female nu/nu mice were purchased from Harlan Laboratories and maintained on normal rodent chow and housed in a sterile environment on a standard 12 hour light and dark cycle for the duration of the study. All animal procedures were approved by the Purdue Animal Care and Use Committee in accordance with NIH guidelines.
(§2) 150 microcurie of CRL-3 ^99mTc was injected intravenously into each mouse. FIGS. 3A-B show an overlay of whole-body radio-images on white light photographs of mice bearing images of HEK CCK2R (a, b) and HEK CCKRi4sv (c, d) tumor xenografts in nu/nu mice two hours after the administration of CRL-3 ^99mTc. Kidneys were shielded with a lead plate. Mice a and c had the radioactive conjugate administered along with 100 fold of free unlabeled targeting ligand. In mice b and d, only the radio-conjugate CRL-3 ^99mTc was administered. Arrows indicate location of the tumor.
Following the above radio-imaging studies, animals were dissected and selected organs/tissues were collected into pre-weighed γ-counter tubes. Radioactivity of weighed tissues and test compounds were counted in a γ-counter. CPM values were decay corrected and results were calculated as % injected dose per gram of wet tissue (% ID/g). […]

[2] = tested on: HEK CCK2R tumor xenografts; test: In vivo radio-imaging and bio-distribution, HEK CCK2R tumor xenografts; design: species or system nu/nu mice
Experimental: as §1, §2
Following the above radio-imaging studies, animals were dissected and selected organs/tissues were collected into pre-weighed γ-counter tubes. Radioactivity of weighed tissues and test compounds were counted in a γ-counter. CPM values were decay corrected and results were calculated as % injected dose per gram of wet tissue (% ID/g). FIGS. 4A-B show the bio-distribution of the CRL-3 ^99mTc in mice having HEK CCK2i4svR and HEK CCK2R tumors. Error bars represent the standard deviation (n=5 mice/group).
Since small molecules are often excreted via the kidneys^43, we next elected to determine whether uptake of CRL-3 ^99mTc in the kidneys might be transient. […] By 24 h post tail vein injection, tumor to tissue ratios of CRL-3 ^99mTc in the muscle, heart, skin, blood, liver, and spleen were 90, 83, 30, 61, 4 and 14, respectively (see also Table 3).

[3] = 150 microcurie i.v., two hours after administration, kidneys shielded
[4] = after radio-imaging, n=5 mice/group
[5] = 0.5, 2, 4, 8 hours post tail vein injection

CC(C)(C)C(=O)CN1C(=O)[C@H](NC(=O)Nc2cccc(C(=O)NCCCCCCCC(=O)N[C@H](CCC(=O)O)C(=O)N[C@H](CCC(=O)NC[C@H](O)[C@@H](O)[C@H](O)[C@H](O)CO)C(=O)N[C@H](CCC(=O)O)C(=O)N[C@H](CCC(=O)NC[C@H](O)[C@@H](O)[C@H](O)[C@H](O)CO)C(=O)NC[C@@H]3[NH][99Tc]45[S]C[C@@H](C(=O)O)[N]4C(=O)[C@H](CC(=O)O)[N]5C3=O)c2)CN(C2CCCCC2)c2ccccc21 (stereo partly drawn) [CRL-3 ^99mTc]
accumulation of radio-conjugate, whole-body radio-image [1, 3]: accumulated mainly in the receptor expressing tumor with little or no accumulation in other tissues except the kidney | bio-distribution of radiotracer in organs/tissues [1, 4]: only the tumor and kidneys show excessive accumulation of radiotracer | content of the kidneys over time (SPECT-CT) [2, 5]: decreased significantly over time | uptake in the tumor mass over time (SPECT-CT) [2, 5]: relatively stable | accumulation of radio-conjugate, whole-body radio-image [2, 3]: accumulated mainly in the receptor expressing tumor with little or no accumulation in other tissues except the kidney | tumor to tissue ratio, blood ([2]; 24 h post tail vein injection): 61 | tumor to tissue ratio, heart ([2]; 24 h post tail vein injection): 83 | tumor to tissue ratio, liver ([2]; 24 h post tail vein injection): 4 | tumor to tissue ratio, muscle ([2]; 24 h post tail vein injection): 90 | tumor to tissue ratio, skin ([2]; 24 h post tail vein injection): 30 | tumor to tissue ratio, spleen ([2]; 24 h post tail vein injection): 14 | Uptake of radioactivity, Blood ([2]; 0.5 h post injection): 5.8 ± 2.7 % ID/g | Uptake of radioactivity, Blood ([2]; 2 h post injection): 1.9 ± 0.97 % ID/g | Uptake of radioactivity, Blood ([2]; 4 h post injection): 1.7 % ID/g | Uptake of radioactivity, Blood ([2]; 8 h post injection): 0.24 % ID/g | Uptake of radioactivity, Blood ([2]; 24 h post injection): 0.10 % ID/g | Uptake of radioactivity, Brain ([2]; 0.5 h post injection): 0.13 % ID/g | Uptake of radioactivity, Brain ([2]; 2 h post injection): 0.051 % ID/g | Uptake of radioactivity, Brain ([2]; 4 h post injection): 0.053 % ID/g | Uptake of radioactivity, Brain ([2]; 8 h post injection): 0.064 % ID/g | Uptake of radioactivity, Brain ([2]; 24 h post injection): 0.0076 % ID/g | Uptake of radioactivity, Heart ([2]; 0.5 h post injection): 2.3 ± 1.5 % ID/g | Uptake of radioactivity, Heart ([2]; 2 h post injection): 0.68 ± 0.47 % ID/g | Uptake of radioactivity, Heart ([2]; 4 h post injection): 0.59 % ID/g | Uptake of radioactivity, Heart ([2]; 8 h post injection): 0.14 % ID/g | Uptake of radioactivity, Heart ([2]; 24 h post injection): 0.076 % ID/g | Uptake of radioactivity, Large Intestine ([2]; 0.5 h post injection): 1.0 ± 0.52 % ID/g | Uptake of radioactivity, Large Intestine ([2]; 2 h post injection): 0.46 ± 0.20 % ID/g | Uptake of radioactivity, Large Intestine ([2]; 4 h post injection): 0.53 % ID/g | Uptake of radioactivity, Large Intestine ([2]; 8 h post injection): 0.24 % ID/g | Uptake of radioactivity, Large Intestine ([2]; 24 h post injection): 0.13 % ID/g | Uptake of radioactivity, Left Kidney ([2]; 0.5 h post injection): 11.2 ± 6.1 % ID/g | Uptake of radioactivity, Left Kidney ([2]; 2 h post injection): 8.4 ± 4.6 % ID/g | Uptake of radioactivity, Left Kidney ([2]; 4 h post injection): 13.4 % ID/g | Uptake of radioactivity, Left Kidney ([2]; 8 h post injection): 6.0 % ID/g | Uptake of radioactivity, Left Kidney ([2]; 24 h post injection): 2.6 % ID/g | Uptake of radioactivity, Liver ([2]; 0.5 h post injection): 6.7 ± 3.6 % ID/g | Uptake of radioactivity, Liver ([2]; 2 h post injection): 2.5 ± 2.4 % ID/g | Uptake of radioactivity, Liver ([2]; 4 h post injection): 4.1 % ID/g | Uptake of radioactivity, Liver ([2]; 8 h post injection): 1.9 % ID/g | Uptake of radioactivity, Liver ([2]; 24 h post injection): 1.4 % ID/g | Uptake of radioactivity, Lungs ([2]; 0.5 h post injection): 3.2 ± 1.7 % ID/g | Uptake of radioactivity, Lungs ([2]; 2 h post injection): 1.2 ± 0.55 % ID/g | Uptake of radioactivity, Lungs ([2]; 4 h post injection): 1.0 % ID/g | Uptake of radioactivity, Lungs ([2]; 8 h post injection): 0.29 % ID/g | Uptake of radioactivity, Lungs ([2]; 24 h post injection): 0.18 % ID/g | Uptake of radioactivity, Muscle ([2]; 0.5 h post injection): 0.8 ± 0.37 % ID/g | Uptake of radioactivity, Muscle ([2]; 2 h post injection): 0.29 % ID/g | Uptake of radioactivity, Muscle ([2]; 4 h post injection): 0.3 % ID/g | Uptake of radioactivity, Muscle ([2]; 8 h post injection): 0.093 % ID/g | Uptake of radioactivity, Muscle ([2]; 24 h post injection): 0.070 % ID/g | Uptake of radioactivity, Pancreas ([2]; 0.5 h post injection): 1.3 ± 0.62 % ID/g | Uptake of radioactivity, Pancreas ([2]; 2 h post injection): 0.69 ± 0.84 % ID/g | Uptake of radioactivity, Pancreas ([2]; 4 h post injection): 0.29 % ID/g | Uptake of radioactivity, Pancreas ([2]; 8 h post injection): 0.10 % ID/g | Uptake of radioactivity, Pancreas ([2]; 24 h post injection): 0.053 % ID/g | Uptake of radioactivity, Right Kidney ([2]; 0.5 h post injection): 11.4 ± 6.3 % ID/g | Uptake of radioactivity, Right Kidney ([2]; 2 h post injection): 7.6 ± 4.4 % ID/g | Uptake of radioactivity, Right Kidney ([2]; 4 h post injection): 12.8 % ID/g | Uptake of radioactivity, Right Kidney ([2]; 8 h post injection): 5.7 % ID/g | Uptake of radioactivity, Right Kidney ([2]; 24 h post injection): 2.6 % ID/g | Uptake of radioactivity, Skin ([2]; 0.5 h post injection): 2.3 ± 1.2 % ID/g | Uptake of radioactivity, Skin ([2]; 2 h post injection): 1.0 ± 0.41 % ID/g | Uptake of radioactivity, Skin ([2]; 4 h post injection): 1.1 % ID/g | Uptake of radioactivity, Skin ([2]; 8 h post injection): 0.42 % ID/g | Uptake of radioactivity, Skin ([2]; 24 h post injection): 0.21 % ID/g | Uptake of radioactivity, Small Intestine ([2]; 0.5 h post injection): 1.2 ± 0.63 % ID/g | Uptake of radioactivity, Small Intestine ([2]; 2 h post injection): 0.52 ± 0.28 % ID/g | Uptake of radioactivity, Small Intestine ([2]; 4 h post injection): 0.52 % ID/g | Uptake of radioactivity, Small Intestine ([2]; 8 h post injection): 0.19 % ID/g | Uptake of radioactivity, Small Intestine ([2]; 24 h post injection): 0.13 % ID/g | Uptake of radioactivity, Spleen ([2]; 0.5 h post injection): 2.1 ± 1.2 % ID/g | Uptake of radioactivity, Spleen ([2]; 2 h post injection): 0.69 ± 0.70 % ID/g | Uptake of radioactivity, Spleen ([2]; 4 h post injection): 1.4 % ID/g | Uptake of radioactivity, Spleen ([2]; 8 h post injection): 0.65 % ID/g | Uptake of radioactivity, Spleen ([2]; 24 h post injection): 0.45 % ID/g | Uptake of radioactivity, Stomach ([2]; 0.5 h post injection): 1.2 ± 0.61 % ID/g | Uptake of radioactivity, Stomach ([2]; 2 h post injection): 0.58 ± 0.32 % ID/g | Uptake of radioactivity, Stomach ([2]; 4 h post injection): 0.56 % ID/g | Uptake of radioactivity, Stomach ([2]; 8 h post injection): 0.24 % ID/g | Uptake of radioactivity, Stomach ([2]; 24 h post injection): 0.15 % ID/g | Uptake of radioactivity, Tumor ([2]; 0.5 h post injection): 7.4 ± 4.6 % ID/g | Uptake of radioactivity, Tumor ([2]; 2 h post injection): 8.1 ± 5.1 % ID/g | Uptake of radioactivity, Tumor ([2]; 4 h post injection): 12.0 % ID/g | Uptake of radioactivity, Tumor ([2]; 8 h post injection): 8.5 % ID/g | Uptake of radioactivity, Tumor ([2]; 24 h post injection): 6.3 ±3.7 % ID/g | bio-distribution of radiotracer in organs/tissues [2, 4]: only the tumor and kidneys show excessive accumulation of radiotracer
